In patent US20080045697A1:

Key:
complement C3b [1] = target: complement C3b (UniProt P01024); assay: cell-based or functional assay
complement C3b [2] = target: complement C3b (UniProt P01024); assay: competition ELISA: CRIg protein against CRIg-LFH on plate-coated C3b, anti-FLAG detection

Substance	fold increase of IC50 compared to wt CRIg (complement C3b [2])	also measured
CRIg (soluble, construct not stated) (from UniProt Q9Y279 20-189) (receptor)		inhibition of C5b-9 deposition through the alternative pathway (LPS-coated plate, C1q deficient serum) (complement C3b [1]): 1.49 µM
CRIg mutant A (E85A M86A) (from UniProt Q9Y279 20-399) (receptor)	> 10000 fold	
CRIg mutant B (H57A Q59A) (from UniProt Q9Y279 20-399) (receptor)	100 fold	
CRIg-Fc (from UniProt Q9Y279 20-283) (Fc fusion)		inhibition of hemolysis of rabbit erythrocytes in C1q deficient serum (alternative pathway) (complement C3b [1]): 127 nM
